The target of this assay is mouse PARP13 ZnF5-WWE1-WWE2 (residues 476 to 673) (mouse) (UniProt Q3UPF5). Briefly: SEC-MALS.

One may read the stoichiometry N as a count of units in the complex or per binding partner. “mouse PARP13 ZnF5-WWE1-WWE2 (residues 476 to 673) (from UniProt Q3UPF5 476-673) (domain or fragment)” gave a percent of the scattering mass in the dimer peak of 4% and a stoichiometry N of 2.

(Values after article doi:10.1101/2021.12.15.472832.)
